Where no end group is shown, it is not given here. [ ]: non-standard residue; d: D form.

In test [1] the target is T1, Foxp3 in murine CD25+ Treg cells (mouse, UniProt Q99JB6 1-417).
T1 sequence (looked up): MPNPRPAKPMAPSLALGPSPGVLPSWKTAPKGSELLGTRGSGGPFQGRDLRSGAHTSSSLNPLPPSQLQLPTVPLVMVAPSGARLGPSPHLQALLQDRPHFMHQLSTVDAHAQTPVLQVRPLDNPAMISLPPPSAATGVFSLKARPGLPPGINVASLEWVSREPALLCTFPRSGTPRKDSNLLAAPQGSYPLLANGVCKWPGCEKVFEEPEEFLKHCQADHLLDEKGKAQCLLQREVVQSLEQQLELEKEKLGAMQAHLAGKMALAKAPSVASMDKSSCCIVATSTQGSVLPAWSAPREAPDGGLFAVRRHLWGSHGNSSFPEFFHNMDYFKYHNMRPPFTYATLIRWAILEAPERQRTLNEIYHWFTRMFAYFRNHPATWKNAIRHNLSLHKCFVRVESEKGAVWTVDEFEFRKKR
The test can be described thus: cell-based or functional assay.

Test [2] addresses GST-FOXP3 (GST fused to the isoform A from human FOXP3 gene) (human) [GST: P08515]. The test can be described thus: AlphaScreen competition, GST-FOXP3 (100 nM) / His-Runx1 (46 nM, competitor); peptide at 2.5 µM.
The target of test [3] is human FOXP3 tagged with 6 histidines at the C terminus (human) (UniProt Q9BZS1). The test can be described thus: SPR (ProteOn XPR36), FOXP3-6His immobilized on GLM chip, peptide 1-20 µM injected; ratio to p60 (SEQ ID NO: 1).
Test [4] has the same target. Kind of test: AlphaScreen competition, His-tagged FOXP3 (400 nM) / GST-tagged FOXP3 (40 nM, competitor); peptide at 100 µM. (In Alpha technology, singlet oxygen from a donor bead excites a nearby acceptor bead.)
Test [5] deals with GST-FOXP3 (GST fused to the isoform A from human FOXP3 gene) (human) [GST: P08515]. The test can be described thus: AlphaScreen competition, GST-FOXP3 (100 nM) / His-Runx1 (46 nM, competitor); peptide at 100 µM.
The target of test [6] is T1, Foxp3 in murine CD25+ Treg cells. The test can be described thus: cell-based or functional assay. This is another data set of the same source.
Test [7] has as its target human FOXP3 tagged with 6 histidines at the C terminus (human) (UniProt Q9BZS1). The test can be described thus: AlphaScreen competition, His-tagged FOXP3 (400 nM) / GST-tagged FOXP3 (40 nM, competitor); peptide at 20 µM.

Sequence of human FOXP3 tagged with 6 histidines at the C terminus (human) (Q9BZS1 other isoform, or with tags, fused parts or gaps): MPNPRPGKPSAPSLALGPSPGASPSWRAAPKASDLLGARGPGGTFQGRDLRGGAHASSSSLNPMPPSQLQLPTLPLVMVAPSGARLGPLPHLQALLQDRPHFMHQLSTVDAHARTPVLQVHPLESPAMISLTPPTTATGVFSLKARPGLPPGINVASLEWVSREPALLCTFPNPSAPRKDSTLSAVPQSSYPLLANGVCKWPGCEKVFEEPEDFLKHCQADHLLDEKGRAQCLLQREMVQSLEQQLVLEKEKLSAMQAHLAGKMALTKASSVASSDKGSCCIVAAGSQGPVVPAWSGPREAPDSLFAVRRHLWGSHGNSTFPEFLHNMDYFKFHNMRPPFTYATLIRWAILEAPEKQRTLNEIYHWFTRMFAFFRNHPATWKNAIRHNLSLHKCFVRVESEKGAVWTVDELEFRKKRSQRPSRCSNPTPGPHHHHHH
Sequence of GST-FOXP3 (GST fused to the isoform A from human FOXP3 gene) (human) [GST: P08515] (P08515 1-218, tags or fused parts left off): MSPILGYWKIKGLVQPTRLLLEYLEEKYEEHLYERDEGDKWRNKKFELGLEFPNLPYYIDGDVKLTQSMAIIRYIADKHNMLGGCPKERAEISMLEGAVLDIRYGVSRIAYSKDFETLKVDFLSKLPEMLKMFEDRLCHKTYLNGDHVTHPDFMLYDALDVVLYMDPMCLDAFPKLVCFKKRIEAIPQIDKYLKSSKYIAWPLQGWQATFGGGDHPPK

For the molecule RAFQSFRKMWPFFA[dM] [peptide of SEQ ID NO: 47], the “IC50 (µM) of inhibition of Treg activity, in vitro Treg suppression assay (murine Tconv + Treg, anti-CD3, [3H]-thymidine)” value (shortened to “IC50 (µM) of inhibition of Treg activity”) in test [1] amounted to 35 µM. The Foxp3-Runx1 Inhibition % inhibition in test [2] stood at 75%. In addition, the Ratio binding Peptide/p60 (fold change) in test [3] was determined as 1.7 fold change.

In test [4], RDFQSFRKMWAFFAM [peptide of SEQ ID NO: 30] showed a Dimerization inhibition % inhibition of 81.3%. In test [5], the Foxp3-Runx1 Inhibition % inhibition amounted to 73.9%. Also, the “Treg inhibition-% inhibition (100 µM)” value in test [6] came out at 170%. Further, in test [3], the Ratio binding Peptide/p60 (fold change) stood at 1.1 fold change.

As for Ac-GRAFQSFRKMWPFFAM-NH2 [peptide of SEQ ID NO: 13], the “IC50 (µM) of inhibition of Treg activity” value in test [1] was determined as 12.5 µM. Further, the Ratio binding Peptide/p60 (fold change) in test [3] is 3.2 fold change.

B1: cyclic peptide SEQ ID NO: 50 (peptide)
peptide: RAFQAFRKMWPFFAM
modifications: head-to-tail cyclic: linker L is C(=O) between the N-terminal amino group of residue 1 and the alpha carbon of residue 15
Turning to B1, in test [1], the “IC50 (µM) of inhibition of Treg activity” value is 0.8 µM. Further, in test [2], the Foxp3-Runx1 Inhibition % inhibition worked out at 60%. Further, the Ratio binding Peptide/p60 (fold change) in test [3] was 21.4 fold change.

As to RDAQSFRKMWPFFAM [peptide of SEQ ID NO: 15], the Foxp3-Runx1 Inhibition % inhibition in test [5] amounted to 55.6%. In test [3], the Ratio binding Peptide/p60 (fold change) is 1.1 fold change.

Turning to Ac-GRAFQAFRKMWPFFAM-NH2 [peptide of SEQ ID NO: 41], the “IC50 (µM) of inhibition of Treg activity” value in test [1] was 1.9 µM. Besides, the Ratio binding Peptide/p60 (fold change) in test [3] amounted to 3.7 fold change.

Ac-GRAFQAFRKMWAFFAM-NH2 [peptide of SEQ ID NO: 45]: the “IC50 (µM) of inhibition of Treg activity” value in test [1] came out at 3 µM. In test [3], the Ratio binding Peptide/p60 (fold change) amounted to 8 fold change.

B2: peptide of SEQ ID NO: 46 (peptide)
peptide: H-[dR]AFQSFRKMWPFFAM-OH
SMILES: CSCC[C@H](NC(=O)[C@H](C)NC(=O)[C@H](Cc1ccccc1)NC(=O)[C@H](Cc1ccccc1)NC(=O)[C@@H]1CCCN1C(=O)[C@H](Cc1c[nH]c2ccccc12)NC(=O)[C@H](CCSC)NC(=O)[C@H](CCCCN)NC(=O)[C@H](CCCNC(=N)N)NC(=O)[C@H](Cc1ccccc1)NC(=O)[C@H](CO)NC(=O)[C@H](CCC(N)=O)NC(=O)[C@H](Cc1ccccc1)NC(=O)[C@H](C)NC(=O)[C@H](N)CCCNC(=N)N)C(=O)O
In test [7], B2 yielded a Dimerization inhibition % inhibition of 90%. For the same molecule, the “IC50 (µM) of inhibition of Treg activity” value in test [1] came out at 12.5 µM. In test [2], this molecule displayed a Foxp3-Runx1 Inhibition % inhibition of 95%. In addition, the Ratio binding Peptide/p60 (fold change) in test [3] was 2.7 fold change.

For the molecule RDFQSFRKMWPFFAM [p60 (peptide of SEQ ID NO: 1)], the Dimerization inhibition % inhibition in test [4] came to 59.7%. The “IC50 (µM) of inhibition of Treg activity” value in test [1] came to 38.3 µM. The Foxp3-Runx1 Inhibition % inhibition in test [5] was determined as 54.5%. Besides, in test [6], the “Treg inhibition-% inhibition (100 µM)” value was found to be 116%. In addition, the Ratio binding Peptide/p60 (fold change) in test [3] is 1 fold change.

As to RAFQSFRKMWPFFAM [peptide of SEQ ID NO: 5], in test [4], the Dimerization inhibition % inhibition came to 74.3%. This molecule also displayed a Foxp3-Runx1 Inhibition % inhibition in test [5] of 76%. Moreover, the “Treg inhibition-% inhibition (100 µM)” value in test [6] came out at 347%. In addition, in test [3], the Ratio binding Peptide/p60 (fold change) was 4.1 fold change.

B3: peptide of SEQ ID NO: 14 (peptide)
peptide: Ac-GR[dA]FQSFRKMWPFFAM-NH2
SMILES: CSCC[C@H](NC(=O)[C@H](C)NC(=O)[C@H](Cc1ccccc1)NC(=O)[C@H](Cc1ccccc1)NC(=O)[C@@H]1CCCN1C(=O)[C@H](Cc1c[nH]c2ccccc12)NC(=O)[C@H](CCSC)NC(=O)[C@H](CCCCN)NC(=O)[C@H](CCCNC(=N)N)NC(=O)[C@H](Cc1ccccc1)NC(=O)[C@H](CO)NC(=O)[C@H](CCC(N)=O)NC(=O)[C@H](Cc1ccccc1)NC(=O)[C@@H](C)NC(=O)[C@H](CCCNC(=N)N)NC(=O)CNC(C)=O)C(N)=O
On to B3, for which the Dimerization inhibition % inhibition in test [7] amounted to 90%. Further, in test [1], the “IC50 (µM) of inhibition of Treg activity” value came out at 12.5 µM. The Foxp3-Runx1 Inhibition % inhibition in test [2] stood at 80%. Moreover, the Ratio binding Peptide/p60 (fold change) in test [3] stood at 3.6 fold change.

On to [dR]AFQSFRKMWPFFA[dM] [peptide of SEQ ID NO: 48], for which the “IC50 (µM) of inhibition of Treg activity” value in test [1] was found to be 20 µM. For the same molecule, in test [2], the Foxp3-Runx1 Inhibition % inhibition came out at 70%. The Ratio binding Peptide/p60 (fold change) in test [3] was found to be 2.5 fold change.

With Ac-GRDFQSFRKMWPFFAM-NH2 [peptide of SEQ ID NO: 2], the Dimerization inhibition % inhibition in test [7] was determined as 80%. In addition, the Ratio binding Peptide/p60 (fold change) in test [3] was 2.4 fold change.

RDFQAFRKMWPFFAM [peptide of SEQ ID NO: 19] showed a Dimerization inhibition % inhibition in test [4] of 89%. Also, in test [5], the Foxp3-Runx1 Inhibition % inhibition was found to be 74.7%. Also, the “Treg inhibition-% inhibition (100 µM)” value in test [6] worked out at 160%. For the same molecule, the Ratio binding Peptide/p60 (fold change) in test [3] came to 1.1 fold change.

B4: peptide of SEQ ID NO: 4 (peptide)
peptide: Ac-GR[dD]FQSFRKMWPFFAM-NH2
SMILES: CSCC[C@H](NC(=O)[C@H](C)NC(=O)[C@H](Cc1ccccc1)NC(=O)[C@H](Cc1ccccc1)NC(=O)[C@@H]1CCCN1C(=O)[C@H](Cc1c[nH]c2ccccc12)NC(=O)[C@H](CCSC)NC(=O)[C@H](CCCCN)NC(=O)[C@H](CCCNC(=N)N)NC(=O)[C@H](Cc1ccccc1)NC(=O)[C@H](CO)NC(=O)[C@H](CCC(N)=O)NC(=O)[C@H](Cc1ccccc1)NC(=O)[C@@H](CC(=O)O)NC(=O)[C@H](CCCNC(=N)N)NC(=O)CNC(C)=O)C(N)=O
Turning to B4, the “IC50 (µM) of inhibition of Treg activity” value in test [1] was determined as 13.4 µM. In addition, the Ratio binding Peptide/p60 (fold change) in test [3] was found to be 4.2 fold change.

Source of the values: patent publication US20190276496A1 (FUNDACI N PARA LA INVESTIGACI N M DICA APLICADA, published 2019).
